Measured values as given in article PMC12053792 (Journal of Peptide Science, 2025).
Entries after “also recorded” stand apart in the source; their conditions may differ.

What was measured:
[1] = Circular dichroism (secondary structure); format: physicochemical
Experimental: CysBAGE4‐MalLNP and 2‐LNP formulations were analysed using DLS, circular dichroism (CD), and TEM. DLS analysis: CysBAGE4‐MalLNP and 2‐LNP formulations were diluted with Milli‐Q water and transferred to disposable cuvettes before measurement at 25°C with a 173° light scattering angle, […]. CD analysis: CysBAGE4‐MalLNP and 2‐LNP formulations were diluted with Milli‐Q water and analysed using a quartz cell with a 0.01 mm path length. Spectra were measured using a 0.5 nm step, 1 nm bandwidth and 1 s collection time per step. […]
NMR samples were analysed on either a Bruker AVIII 400 NMR system (1H-NMR frequency 400 MHz; 13C-NMR frequency 101 MHz) or a Bruker 500 MHz system (1H-NMR frequency 500 MHz; 13C-NMR frequency 125 MHz). […]
High-resolution mass spectra were recorded on a Bruker MicroTOF Focus II MS (ESI) operating in positive or negative ionisation mode. […]
Peptides were analyzed using a Waters Sunfire 5 μm, 2.1 x 150 mm column (C-18) at a flow rate of 0.6 mL/min. […]
Dynamic Light Scattering (DLS) Spectra were recorded using a Zetasizer Nano ZS (Malvern Panalytical) to measure the particle size and charge. […]
Circular Dichroism (CD) Spectra were recorded using a Chirascan spectropolarimeter (Applied Photophysics, U.K.). […]
windows, with 0.01 mm path length. Spectra were measured using a 0.5 nm step, 1 nm […]

[2] = SAXS and cryo‐TEM (fibril formation); format: physicochemical; settings: 1 wt% aqueous solution
Experimental: Interrogation of the structure of peptide‐adjuvant constructs 2 and 3 was performed using CD spectroscopy as well as modelling studies (PEP‐FOLD). […] Fibril formation by α‐helical peptides is typically observed due to lateral association of coiled‐coils. Here, this may play a role, although lateral interaction of the hydrophobic alkyl chains is likely to be the essential driver for the fibril formation. The fibril core radius 14.0–18.5 Å from SAXS (Table S1) is consistent with the length of an extended Pam lipid chain. […]
windows, with 0.01 mm path length. Spectra were measured using a 0.5 nm step, 1 nm bandwidth and 1 s collection time per step, and a range of 180 to 280 nm. […]
The residue of the calculation was chosen to oscillate around the average, to avoid artifacts in the smoothed curve. CD data, measured in mdeg, was normalized to molar ellipticity using the molar concentration of the sample and the cell path length.
Cryogenic-TEM (Cryo-TEM) Imaging was carried out using a field emission cryo-electron microscope (JEOL JEM-3200FSC), operating at 200 kV. […] The micrographs were recorded using a Gatan Ultrascan 4000 CCD camera. […] Vitrified specimens were prepared using an automated FEI Vitrobot device using Quantifoil 3.5/1 holey carbon copper 200 mesh grids with a hole size of 3.5 µm and […]. […]

Substance: 3: vaccine‐adjuvant construct Pam2Cys‐SK4‐NY‐ESO‐1_157‐165 [compound 3]
- α‐helical character (f α) ([1]; CD spectra, Figures S12 and S13): 0.41
- Secondary structure (in words) ([1]; CD, 0.01 mm path length, 180–280 nm): form α‐helical structures; also recorded: significantly more α‐helical character
- Fibril formation [2]: also formed fibrils; also recorded: indicate the formation of fibrils
